From patent publication US20230330254A1 (Regeneron, published 2023)
Read-outs that look alike come from different tables or passages of the source.

T1: full-length human gastric inhibitory polypeptide receptor on HEK293/CRE-Luc/hGIPR cells (human, UniProt P48546 22-466)
T1 sequence (looked up): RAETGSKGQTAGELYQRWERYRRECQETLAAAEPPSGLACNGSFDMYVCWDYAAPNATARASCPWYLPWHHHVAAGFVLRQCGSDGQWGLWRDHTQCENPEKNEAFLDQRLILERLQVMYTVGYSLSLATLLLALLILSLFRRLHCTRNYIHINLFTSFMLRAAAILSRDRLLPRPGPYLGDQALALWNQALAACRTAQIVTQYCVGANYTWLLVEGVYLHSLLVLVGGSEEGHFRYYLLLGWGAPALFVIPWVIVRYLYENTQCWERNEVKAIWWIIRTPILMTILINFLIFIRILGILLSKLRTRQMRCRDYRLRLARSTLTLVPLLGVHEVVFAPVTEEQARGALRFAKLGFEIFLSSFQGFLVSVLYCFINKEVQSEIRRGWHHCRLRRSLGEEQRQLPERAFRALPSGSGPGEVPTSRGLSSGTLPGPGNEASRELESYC

T2: full-length human glucagon-like peptide 2 receptor on HEK293/CRE-Luc/hGLP2R cells (human, UniProt O95838 1-553)
T2 sequence (looked up): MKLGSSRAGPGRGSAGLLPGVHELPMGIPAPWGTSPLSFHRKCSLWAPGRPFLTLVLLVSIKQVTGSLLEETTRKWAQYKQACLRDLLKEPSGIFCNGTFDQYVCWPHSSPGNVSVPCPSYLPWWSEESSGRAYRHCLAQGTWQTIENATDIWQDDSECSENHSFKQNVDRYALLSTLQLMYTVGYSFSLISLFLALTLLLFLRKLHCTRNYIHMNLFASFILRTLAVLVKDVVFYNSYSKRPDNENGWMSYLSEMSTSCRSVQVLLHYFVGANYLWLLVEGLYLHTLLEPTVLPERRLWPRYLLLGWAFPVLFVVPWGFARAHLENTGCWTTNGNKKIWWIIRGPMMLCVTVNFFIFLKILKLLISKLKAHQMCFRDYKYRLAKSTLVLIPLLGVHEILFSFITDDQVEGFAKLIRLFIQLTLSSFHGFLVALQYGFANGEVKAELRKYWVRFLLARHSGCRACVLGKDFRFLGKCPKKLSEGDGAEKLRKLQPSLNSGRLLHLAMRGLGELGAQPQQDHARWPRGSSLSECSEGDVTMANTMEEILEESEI

T3: full-length mouse GLP1R on HEK293/CRE-Luc/mGLP1R cells (mouse, UniProt O35659 22-463)
T3 construct: whole, on cells
T3 sequence (looked up): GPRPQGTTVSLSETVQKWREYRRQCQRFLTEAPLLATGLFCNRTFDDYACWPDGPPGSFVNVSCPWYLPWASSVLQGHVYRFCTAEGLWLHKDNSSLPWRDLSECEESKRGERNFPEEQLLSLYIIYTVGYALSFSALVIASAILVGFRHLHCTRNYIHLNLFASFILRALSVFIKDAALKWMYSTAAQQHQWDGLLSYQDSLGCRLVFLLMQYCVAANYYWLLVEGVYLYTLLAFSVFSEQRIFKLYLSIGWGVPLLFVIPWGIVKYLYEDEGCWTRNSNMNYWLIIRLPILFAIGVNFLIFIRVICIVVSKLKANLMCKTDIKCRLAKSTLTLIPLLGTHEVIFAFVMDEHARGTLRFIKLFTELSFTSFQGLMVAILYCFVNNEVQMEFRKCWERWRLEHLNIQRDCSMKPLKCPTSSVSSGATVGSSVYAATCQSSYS


How the values were obtained:
[1] = target: T1, full-length human gastric inhibitory …; experiment: cell-based or functional assay
[2] = target: T2, full-length human glucagon-like peptide …; experiment: cell-based or functional assay
[3] = target: full-length human glucagon receptor on HEK293/CRE-Luc/hGCGR cells (human, UniProt P47871 26-477); experiment: cell-based or functional assay
[4] = target: T4, full-length cynomolgus GLP1R on HEK293/CRE-Luc/mfGLP1R cells (cynomolgus, UniProt F8V479 24-463); experiment: cell-based or functional assay
[5] = target: T5, full-length human GLP1R on HEK293/CRE-Luc/hGLP1R cells (human, UniProt P43220 24-463); experiment: cell-based or functional assay
[6] = target: T4, full-length cynomolgus GLP1R on …; experiment: flow cytometry, mfGLP1R cells
[7] = target: T5, full-length human GLP1R on …; experiment: flow cytometry, hGLP1R cells
[8] = target: T3, full-length mouse GLP1R on …; experiment: flow cytometry, mGLP1R cells
[9] = target: T5, full-length human GLP1R on …; experiment: flow cytometry, hGLP1R cells; remark: listed apart in the source
[10] = target: T4, full-length cynomolgus GLP1R on …; experiment: flow cytometry, mfGLP1R cells; remark: listed apart in the source
[11] = target: T5, full-length human GLP1R on …; experiment: cell-based or functional assay; remark: listed apart in the source

Chain of full-length human glucagon receptor on HEK293/CRE-Luc/hGCGR cells (P47871 26-477): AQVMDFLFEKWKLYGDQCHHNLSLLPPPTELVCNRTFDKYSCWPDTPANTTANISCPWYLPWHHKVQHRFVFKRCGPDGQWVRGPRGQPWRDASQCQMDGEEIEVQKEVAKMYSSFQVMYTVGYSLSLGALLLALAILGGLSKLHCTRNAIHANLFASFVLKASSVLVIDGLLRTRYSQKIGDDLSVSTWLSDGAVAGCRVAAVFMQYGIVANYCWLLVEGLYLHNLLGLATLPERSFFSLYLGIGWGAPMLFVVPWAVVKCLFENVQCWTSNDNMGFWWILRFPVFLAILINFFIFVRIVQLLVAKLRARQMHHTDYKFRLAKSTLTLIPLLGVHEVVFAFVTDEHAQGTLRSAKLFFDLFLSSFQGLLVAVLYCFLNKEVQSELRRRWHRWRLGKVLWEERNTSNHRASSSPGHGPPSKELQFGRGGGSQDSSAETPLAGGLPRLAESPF

Row | Binder | CRE-luc EC50 [1] [nM] | CRE-luc EC50 [2] [nM] | CRE-luc EC50 [3] [nM] | CRE-luc EC50 [4] [nM] | CRE-luc EC50 [5] [nM] | EC50 [6] [nM] | Flow S/N [6] [fold] | EC50 [7] [nM] | Flow S/N [7] [fold] | EC50 [8] [nM] | Flow S/N [8] [fold] | EC50 [9] [nM] | Flow S/N [9] [fold] | EC50 [10] [nM] | Flow S/N [10] [fold] | CRE-luc EC50 [11] [nM] | CRE-luc Relative Potency (% P8 EC50) [11] [%] | CRE-luc Relative Signal:Noise (% P8) [11] [%] | CRE-luc S/N [11] [fold]
1 | REGN7990 (antibody, human IgG4 S228P, kappa, V domains shown, IgG4; Q-tag on light chain N-terminus; also called mAb 3; REGN7990 unconjugated Ab) VH: not shown VL: DIQMTQSPSSVSASVGDRVTITCRASQGINSWLAWYQQKPGKAPKLLIYAASSLQSGVPSRFSGSGSGTDFTLTISSLQPEDFATYYCHQADSFPYTFGQGTKLEIKR | > 30 | > 30 | > 30 | > 30 | > 30 | 0.988 | 205 | 8.48 | 260 | 61.4 | 154 | 1.89 | 256 | 7.47 | 528 |  |  |  | 
2 | COMP Anti-GLP1R mAb1 conjugated to LP3 (antibody, human IgG4 S228P, kappa, V domains shown, azido-PEG3-amine on the Gln of the N-terminal Q-tag LLQGSG, clicked to LP3 (DIBAC-suc-PEG12-P9)) VH: QVTLKESGPGILQPSQTLSLTCSFSGFSLSTSGTGVGWIRQPSGKGLEWLSHIWWDDVKRYNPALKSRLTISRDTSYSQVFLRIASVDTADTATYYCARILDGTGPMDYWGQGTSVTVSS VL: QIVLTQSPAIMSASPGEKVTMTCSASSRVTYMHWYQQRSGTSPKRWIYDTSKLASGVPARFSGSGSGTSYSLTISSMEAEDAATYYCQQWGNNPQYTFGGGTRLEIKR |  |  |  |  |  |  |  |  |  |  |  |  |  |  |  | 0.044 | 62.1 | 115 | 272
3 | COMP Anti-GLP1R mAb1 conjugated to LP1 (antibody, human IgG4 S228P, kappa, V domains shown, azido-PEG3-amine on the Gln of the N-terminal Q-tag LLQGSG, clicked to LP1 (DIBAC-suc-PEG4-P9)) VH: QVTLKESGPGILQPSQTLSLTCSFSGFSLSTSGTGVGWIRQPSGKGLEWLSHIWWDDVKRYNPALKSRLTISRDTSYSQVFLRIASVDTADTATYYCARILDGTGPMDYWGQGTSVTVSS VL: QIVLTQSPAIMSASPGEKVTMTCSASSRVTYMHWYQQRSGTSPKRWIYDTSKLASGVPARFSGSGSGTSYSLTISSMEAEDAATYYCQQWGNNPQYTFGGGTRLEIKR |  |  |  |  |  |  |  |  |  |  |  |  |  |  |  | 0.0282 | 96.7 | 90.3 | 213
4 | COMP Anti-GLP1R mAb1 conjugated to LP2 (antibody, human IgG4 S228P, kappa, V domains shown, azido-PEG3-amine on the Gln of the N-terminal Q-tag LLQGSG, clicked to LP2 (DIBAC-suc-PEG8-P9)) VH: QVTLKESGPGILQPSQTLSLTCSFSGFSLSTSGTGVGWIRQPSGKGLEWLSHIWWDDVKRYNPALKSRLTISRDTSYSQVFLRIASVDTADTATYYCARILDGTGPMDYWGQGTSVTVSS VL: QIVLTQSPAIMSASPGEKVTMTCSASSRVTYMHWYQQRSGTSPKRWIYDTSKLASGVPARFSGSGSGTSYSLTISSMEAEDAATYYCQQWGNNPQYTFGGGTRLEIKR |  |  |  |  |  |  |  |  |  |  |  |  |  |  |  | 0.0217 | 126 | 96.4 | 227
